Measurements: US20150344570A1 (published 2015)

T1: FcγRIIa H (human, UniProt P12318 34-217)
T1 construct: extracellular domain; also called FcgRIIa H; 2aH; not shown: His tag attached to the C terminus
T1 sequence (looked up): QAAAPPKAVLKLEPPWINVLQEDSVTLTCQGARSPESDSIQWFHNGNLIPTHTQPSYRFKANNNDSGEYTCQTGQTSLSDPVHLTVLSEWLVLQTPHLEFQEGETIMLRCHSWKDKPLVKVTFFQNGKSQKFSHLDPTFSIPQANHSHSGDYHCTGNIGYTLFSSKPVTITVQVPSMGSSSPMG

T2: FcγRIIb (human, UniProt P31994 43-217)
T2 construct: extracellular domain; also called FcgRIIb; 2b; not shown: His tag attached to the C terminus
T2 sequence (looked up): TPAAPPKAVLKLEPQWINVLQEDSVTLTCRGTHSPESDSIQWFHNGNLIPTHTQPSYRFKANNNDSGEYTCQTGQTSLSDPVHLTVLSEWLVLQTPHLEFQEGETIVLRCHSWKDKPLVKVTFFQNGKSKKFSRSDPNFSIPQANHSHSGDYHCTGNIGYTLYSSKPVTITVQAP

B1: GpH7-A5/GpH7-B3 variant D265_02A/GpL16-k0 (antibody, human IgG1, kappa)
heavy 1: not shown
heavy 2: not shown
light: DIVMTQSPLSLPVTPGEPASISCQASESLVHSNRNTYLHWYLQKPGQSPQLLIYKVSNRFSGVPDRFSGSGSGTDFTLKISRVEAEDVGVYYCSQNTHVPPTFGQGTKVEIERTVAAPSVFIFPPSDEQLKSGTASVVCLLNNFYPREAKVQWKVDNALQSGNSQESVTEQDSKDSTYSLSSTLTLSKADYEKHKVYACEVTHQGLSSPVTKSFNRGEC
notes: Heterodimerized anti-glypican-3 IgG1; mutation in one H chain only; also called He Ab
B2: GpH7-A5/GpH7-B3 variant D265_12R/GpL16-k0 (antibody, human IgG1, kappa)
heavy 1: not shown
heavy 2: not shown
light: B1 light
notes: as for B1
B3: GpH7-A5/GpH7-B3 variant S239_11K/GpL16-k0 (antibody, human IgG1, kappa)
heavy 1: not shown
heavy 2: not shown
light: B1 light
notes: as for B1
B4: GpH7-A5/GpH7-B3 variant D265_14T/GpL16-k0 (antibody, human IgG1, kappa)
heavy 1: not shown
heavy 2: not shown
light: B1 light
notes: as for B1
B5: GpH7-A5/GpH7-B3 variant H268_04F/GpL16-k0 (antibody, human IgG1, kappa)
heavy 1: not shown
heavy 2: not shown
light: B1 light
notes: as for B1
B6: GpH7-A5/GpH7-B3 variant D265_06M/GpL16-k0 (antibody, human IgG1, kappa)
heavy 1: not shown
heavy 2: not shown
light: B1 light
notes: as for B1
B7: GpH7-A5/GpH7-B3 variant V266_05P/GpL16-k0 (antibody, human IgG1, kappa)
heavy 1: not shown
heavy 2: not shown
light: B1 light
notes: as for B1
B8: GpH7-A5/GpH7-B3 variant D265_11K/GpL16-k0 (antibody, human IgG1, kappa)
heavy 1: not shown
heavy 2: not shown
light: B1 light
notes: as for B1
B9: GpH7-A5/GpH7-B3 variant E269_01G/GpL16-k0 (antibody, human IgG1, kappa)
heavy 1: not shown
heavy 2: not shown
light: B1 light
notes: as for B1
B10: GpH7-A5/GpH7-B3 variant D265_04F/GpL16-k0 (antibody, human IgG1, kappa)
heavy 1: not shown
heavy 2: not shown
light: B1 light
notes: as for B1
B11: GpH7-A5/GpH7-B3 variant D265_16H/GpL16-k0 (antibody, human IgG1, kappa)
heavy 1: not shown
heavy 2: not shown
light: B1 light
notes: as for B1
B12: GpH7-A5/GpH7-B3 variant D265_15Y/GpL16-k0 (antibody, human IgG1, kappa)
heavy 1: not shown
heavy 2: not shown
light: B1 light
notes: as for B1
B13: GpH7-A5/GpH7-B3 variant H268_06M/GpL16-k0 (antibody, human IgG1, kappa)
heavy 1: not shown
heavy 2: not shown
light: B1 light
notes: as for B1
B14: GpH7-A5/GpH7-B3 variant G236_16H/GpL16-k0 (antibody, human IgG1, kappa)
heavy 1: not shown
heavy 2: not shown
light: B1 light
notes: as for B1
B15: GpH7-A5/GpH7-B3 variant D265_20W/GpL16-k0 (antibody, human IgG1, kappa)
heavy 1: not shown
heavy 2: not shown
light: B1 light
notes: as for B1
B16: GpH7-A5/GpH7-B3 variant H268_08L/GpL16-k0 (antibody, human IgG1, kappa)
heavy 1: not shown
heavy 2: not shown
light: B1 light
notes: as for B1

What follows are binders tested against T1, FcγRIIa H (assay: SPR (Biacore), antibody captured on antigen peptide chip, FcγR as analyte; relative binding activity).
Protocol: (§1) The heterodimerized antibodies He Abs in which one of the H chains was introduced with an alteration were assayed for their binding activities to each activating FcγR and inhibitory FcγR according to the method described in Example 4. […] The activating FcγRs in FIGS. 26, 27, 28, and 29 are FcγRIa, FcγRIIa (R), FcγRIIa (H), and FcγRIIIa, respectively.
(§2) Analysis of interaction between objective antibody and the FcγR was carried out using Biacore T100 (GE Healthcare). HBS-EP+ (GE Healthcare) was used as the running buffer, and the measurement temperature was set to 25° C. Chips produced by immobilizing the antigen peptide by the amine coupling method to a Series S Sencor Chip CM5 (GE Healthcare), or alternatively, chips produced by allowing preliminarily biotinylated antigen peptides to interact with and immobilize onto a Series S Sensor Chip SA (certified) (GE Healthcare) were used. Antibodies of interest were captured onto an antigen peptide-immobilized chip, and allowed to interact to each FcγR diluted with running buffer. To regenerate and repeatedly use the chip, the antibodies captured on the chip were washed off by reacting 10 mM glycine-HCl, pH 1.5.

He/Con_2aH | Binder
31.3 % of GpH7-A5/GpH7-B3/GpL16-k0 (=100) | B1
28 % of GpH7-A5/GpH7-B3/GpL16-k0 (=100) | B2
48.1 % of GpH7-A5/GpH7-B3/GpL16-k0 (=100) | B3
24.1 % of GpH7-A5/GpH7-B3/GpL16-k0 (=100) | B4
111 % of GpH7-A5/GpH7-B3/GpL16-k0 (=100) | B5
13.5 % of GpH7-A5/GpH7-B3/GpL16-k0 (=100) | B6
0.7 % of GpH7-A5/GpH7-B3/GpL16-k0 (=100) | B7
27.8 % of GpH7-A5/GpH7-B3/GpL16-k0 (=100) | B8
71.5 % of GpH7-A5/GpH7-B3/GpL16-k0 (=100) | B9
4.1 % of GpH7-A5/GpH7-B3/GpL16-k0 (=100) | B10
48.6 % of GpH7-A5/GpH7-B3/GpL16-k0 (=100) | B11
3.7 % of GpH7-A5/GpH7-B3/GpL16-k0 (=100) | B12
84.8 % of GpH7-A5/GpH7-B3/GpL16-k0 (=100) | B13
98.2 % of GpH7-A5/GpH7-B3/GpL16-k0 (=100) | B14
3.2 % of GpH7-A5/GpH7-B3/GpL16-k0 (=100) | B15
85 % of GpH7-A5/GpH7-B3/GpL16-k0 (=100) | B16

The binders below were run against T2, FcγRIIb in the same assay as above.
Protocol: as §1, §2

He/Con_2b | Binder
19.9 % of GpH7-A5/GpH7-B3/GpL16-k0 (=100) | B1
15 % of GpH7-A5/GpH7-B3/GpL16-k0 (=100) | B2
24.7 % of GpH7-A5/GpH7-B3/GpL16-k0 (=100) | B3
16 % of GpH7-A5/GpH7-B3/GpL16-k0 (=100) | B4
89.6 % of GpH7-A5/GpH7-B3/GpL16-k0 (=100) | B5
10 % of GpH7-A5/GpH7-B3/GpL16-k0 (=100) | B6
0.4 % of GpH7-A5/GpH7-B3/GpL16-k0 (=100) | B7
14.9 % of GpH7-A5/GpH7-B3/GpL16-k0 (=100) | B8
51.5 % of GpH7-A5/GpH7-B3/GpL16-k0 (=100) | B9
3.2 % of GpH7-A5/GpH7-B3/GpL16-k0 (=100) | B10
38.3 % of GpH7-A5/GpH7-B3/GpL16-k0 (=100) | B11
0.6 % of GpH7-A5/GpH7-B3/GpL16-k0 (=100) | B12
65.7 % of GpH7-A5/GpH7-B3/GpL16-k0 (=100) | B13
27.9 % of GpH7-A5/GpH7-B3/GpL16-k0 (=100) | B14
1.1 % of GpH7-A5/GpH7-B3/GpL16-k0 (=100) | B15
67.8 % of GpH7-A5/GpH7-B3/GpL16-k0 (=100) | B16

Each binder was assayed against T1, FcγRIIa H (assay: SPR; He/Con for FcγRIIa H divided by He/Con for FcγRIIb).

He_2aH/2b (IIaH/IIb) [ratio] | Binder
1.58 | B1
1.87 | B2
1.94 | B3
1.5 | B4
1.24 | B5
1.35 | B6
1.91 | B7
1.87 | B8
1.39 | B9
1.28 | B10
1.27 | B11
6.07 | B12
1.29 | B13
3.51 | B14
2.86 | B15
1.25 | B16
